Measured values reported in PMC4690146.

Biological target: CD36 (human (endogenous in primary monocytes)) (UniProt P16671)
Sequence of UniProt P16671 (P16671 whole entry): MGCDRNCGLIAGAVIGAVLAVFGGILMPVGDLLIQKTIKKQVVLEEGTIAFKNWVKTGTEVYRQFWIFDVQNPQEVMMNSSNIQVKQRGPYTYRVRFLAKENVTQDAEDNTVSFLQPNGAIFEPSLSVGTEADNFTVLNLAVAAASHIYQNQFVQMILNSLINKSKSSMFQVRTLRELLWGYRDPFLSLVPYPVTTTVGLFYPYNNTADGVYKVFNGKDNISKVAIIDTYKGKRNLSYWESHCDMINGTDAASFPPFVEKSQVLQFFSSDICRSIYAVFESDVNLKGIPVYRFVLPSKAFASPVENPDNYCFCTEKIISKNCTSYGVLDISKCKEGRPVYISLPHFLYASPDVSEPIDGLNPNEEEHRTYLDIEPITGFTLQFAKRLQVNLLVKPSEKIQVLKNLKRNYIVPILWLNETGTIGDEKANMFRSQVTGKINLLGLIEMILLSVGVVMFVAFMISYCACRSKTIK

- CD36 surface expression on Mo (flow cytometry, percentage of CD36 positive cells) after bLF 100 μg/mL for 18 h (% CD36 positive cells): < 30
Substance: bovine lactoferrin (natural protein)
